This assay has as its target β2AR wild type (wt) receptor (human) (UniProt P07550). The experiment in a line: cell-based or functional assay.

MbNb80^cHopQ (designed binder): the apparent potency shift: IC50 of epinephrine for β2AR-wt alone divided by the IC50^high of epinephrine for β2AR-wt in the presence of MbNb80^cHopQ ([3H]-DHA competition) was 2000 fold and the apparent potency shift: IC50 of isoprotenerol for β2AR-wt divided by the IC50^high of isoprotenerol for β2AR-wt in the presence of MbNb80^cHopQ ([3H]-DHA competition) was determined as 2000 fold.

For the origin of these results see US20240174767A1.
